This series has as its system N=C(N)NCCC[C@H](N)C(=O)O. The series can be described thus: purified protein. Conditions: 27 °C.

As usually defined, the Km is the concentration of substrate that gives half-maximal velocity. What is called kcat is the maximal rate divided by the concentration of active sites. A word on the kcat/Km: it is the second-order rate constant that governs catalysis at low substrate concentration.

From the text: decarboxylase activity assay on Ca. Fonsibacter ubiquis "ODC" (ODC/ADC)

Consider “Ca. Fonsibacter ubiquis "ODC" (ODC/ADC) (unidentified)”, for which the Km was 1300 ± 120 µM, the kcat is 2.2 ± 0.13 s⁻¹ and the kcat/Km came out at 1700 ± 91 M⁻¹ s⁻¹.
